Experimental findings from paper doi:10.1101/2021.06.09.447696, “A dual allosteric pathway drives human mitochondrial Lon” (bioRxiv, 2021) are described below.

B3: human mitochondrial Lon (68-959) K898A (enzyme, UniProt P36776 68-959, looked up)
chain: FWEASSRGGGAFSGGEDASEGGAEEGAGGAGGSAGAGEGPVITALTPMTIPDVFPHLPLIAITRNPVFPRFIKIIEVKNKKLVELLRRKVRLAQPYVGVFLKRDDSNESDVVESLDEIYHTGTFAQIHEMQDLGDKLRMIVMGHRRVHISRQLEVEPEEPEAENKHKPRRKSKRGKKEAEDELSARHPAELAMEPTPELPAEVLMVEVENVVHEDFQVTEEVKALTAEIVKTIRDIIALNPLYRESVLQMMQAGQRVVDNPIYLSDMGAALTGAESHELQDVLEETNIPKRLYKALSLLKKEFELSKLQQRLGREVEEKIKQTHRKYLLQEQLKIIKKELGLEKDDKDAIEEKFRERLKELVVPKHVMDVVDEELSKLGLLDNHSSEFNVTRNYLDWLTSIPWGKYSNENLDLARAQAVLEEDHYGMEDVKKRILEFIAVSQLRGSTQGKILCFYGPPGVGKTSIARSIARALNREYFRFSVGGMTDVAEIKGHRRTYVGAMPGKIIQCLKKTKTENPLILIDEVDKIGRGYQGDPSSALLELLDPEQNANFLDHYLDVPVDLSKVLFICTANVTDTIPEPLRDRMEMINVSGYVAQEKLAIAERYLVPQARALCGLDESKAKLSSDVLTLLIKQYCRESGVRNLQKQVEKVLRKSAYKIVSGEAESVEVTPENLQDFVGKPVFTVERMYDVTPPGVVMGLAWTAMGGSTLFVETSLRRPQDKDAKGDKDGSLEVTGQLGEVMKESARIAYTFARAFLMQHAPANDYLVTSHIHLHVPEGATPKDGPSAGCTIVTALLSLAMGRPVRQNLAMTGEVSLTGKILPVGGIKEATIAAKRAGVTCIVLPAENKKDFYDLAAFITEGLEVHFVEHYREIFDIAFPDEQAEALAVER
notes: human mitochondrial LonP1, mature protein, residues 68-959 of UniProt P36776, with K898A; The substrate is trapped as a covalent ester intermediate on S855; also called Lon^K898A; substrate-trapped Lon; not shown: His6, N-terminal, cleaved

Data set [1] deals with the molecule itself. In words: cryo-EM structure; 0.5-0.7 mg/ml Lon construct in 20 mM HEPES pH 7.5, 100 mM NaCl, 10 mM MgCl2, 3% glycerol, 2 mM ATP added to 0.2 mg/ml TFAM, 30 s at room temperature, then vitrified; single-particle reconstruction.
Data set [2] concerns the molecule itself. In words: SEC; Superose 6 Increase 3.2/300; 25 mM Tris-HCl pH 8.0, 10% glycerol, 1 mM DTT, 50 mM NaCl, 2 mM ATP; protein incubated at 37°C for 10 min with 2 mM ATP and 10 mM MgCl2; fractions analysed by SDS-PAGE. A general note: Size exclusion chromatography separates by hydrodynamic size, large species first.
In data set [3] the target is B3. The experiment in a line: cryo-EM structure; 0.5-0.7 mg/ml Lon construct in 20 mM HEPES pH 7.5, 100 mM NaCl, 10 mM MgCl2, 3% glycerol, 2 mM ATP added to 0.2 mg/ml TFAM, 30 s at room temperature, then vitrified; single-particle reconstruction. As to conditions: both partners purified.
The target of data set [4] is T1, human mitochondrial Lon, full-length mature form (68-959), wild type (human, UniProt P36776 68-959).
T1 construct: human mitochondrial LonP1, mature protein, residues 68-959 of UniProt P36776; Homohexamer in the cryo-EM structure; vector pNIC28-Bsa4; also called LonP1; wt-Lon; not shown: His6, N-terminal, cleaved
T1 sequence (looked up): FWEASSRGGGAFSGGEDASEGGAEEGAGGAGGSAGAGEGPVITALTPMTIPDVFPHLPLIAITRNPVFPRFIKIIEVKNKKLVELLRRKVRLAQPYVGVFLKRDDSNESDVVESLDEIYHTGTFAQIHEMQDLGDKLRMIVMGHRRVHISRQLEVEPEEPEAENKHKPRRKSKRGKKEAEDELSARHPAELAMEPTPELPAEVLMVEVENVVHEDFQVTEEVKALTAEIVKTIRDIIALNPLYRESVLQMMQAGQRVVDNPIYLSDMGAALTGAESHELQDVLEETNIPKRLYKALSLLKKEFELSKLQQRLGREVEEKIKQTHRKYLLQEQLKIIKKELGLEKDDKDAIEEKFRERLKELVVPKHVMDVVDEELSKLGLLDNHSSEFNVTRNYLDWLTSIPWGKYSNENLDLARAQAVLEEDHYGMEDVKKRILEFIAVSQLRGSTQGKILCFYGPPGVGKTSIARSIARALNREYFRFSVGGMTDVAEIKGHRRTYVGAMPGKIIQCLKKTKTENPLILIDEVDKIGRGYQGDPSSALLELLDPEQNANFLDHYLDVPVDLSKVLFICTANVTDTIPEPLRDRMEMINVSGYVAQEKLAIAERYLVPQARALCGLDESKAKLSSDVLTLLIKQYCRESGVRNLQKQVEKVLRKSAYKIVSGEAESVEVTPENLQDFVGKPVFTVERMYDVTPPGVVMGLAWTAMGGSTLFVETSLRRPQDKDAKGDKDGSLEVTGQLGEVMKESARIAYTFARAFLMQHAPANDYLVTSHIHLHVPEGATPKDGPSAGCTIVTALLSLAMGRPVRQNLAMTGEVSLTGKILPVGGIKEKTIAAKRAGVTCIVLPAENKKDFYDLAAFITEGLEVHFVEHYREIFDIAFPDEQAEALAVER
The description is as above. As to conditions: both partners purified.

B1: human mitochondrial Lon (68-959) G106P, R563W, K594M (enzyme, UniProt P36776 68-959, looked up)
chain: FWEASSRGGGAFSGGEDASEGGAEEGAGGAGGSAGAGEPPVITALTPMTIPDVFPHLPLIAITRNPVFPRFIKIIEVKNKKLVELLRRKVRLAQPYVGVFLKRDDSNESDVVESLDEIYHTGTFAQIHEMQDLGDKLRMIVMGHRRVHISRQLEVEPEEPEAENKHKPRRKSKRGKKEAEDELSARHPAELAMEPTPELPAEVLMVEVENVVHEDFQVTEEVKALTAEIVKTIRDIIALNPLYRESVLQMMQAGQRVVDNPIYLSDMGAALTGAESHELQDVLEETNIPKRLYKALSLLKKEFELSKLQQRLGREVEEKIKQTHRKYLLQEQLKIIKKELGLEKDDKDAIEEKFRERLKELVVPKHVMDVVDEELSKLGLLDNHSSEFNVTRNYLDWLTSIPWGKYSNENLDLARAQAVLEEDHYGMEDVKKRILEFIAVSQLRGSTQGKILCFYGPPGVGKTSIARSIARALNREYFRFSVGGMTDVAEIKGHRWTYVGAMPGKIIQCLKKTKTENPLILIDEVDMIGRGYQGDPSSALLELLDPEQNANFLDHYLDVPVDLSKVLFICTANVTDTIPEPLRDRMEMINVSGYVAQEKLAIAERYLVPQARALCGLDESKAKLSSDVLTLLIKQYCRESGVRNLQKQVEKVLRKSAYKIVSGEAESVEVTPENLQDFVGKPVFTVERMYDVTPPGVVMGLAWTAMGGSTLFVETSLRRPQDKDAKGDKDGSLEVTGQLGEVMKESARIAYTFARAFLMQHAPANDYLVTSHIHLHVPEGATPKDGPSAGCTIVTALLSLAMGRPVRQNLAMTGEVSLTGKILPVGGIKEKTIAAKRAGVTCIVLPAENKKDFYDLAAFITEGLEVHFVEHYREIFDIAFPDEQAEALAVER
notes: human mitochondrial LonP1, mature protein, residues 68-959 of UniProt P36776, with the mutations G106P, R563W and K594M that arose spontaneously on cloning; also called Lon^Apo; substrate-free form of Lon; not shown: His6, N-terminal, cleaved
Consider B1, for which the binding result in data set [1] was “binds”.

B2: human mitochondrial Lon (68-959) L396A (enzyme, UniProt P36776 68-959, looked up)
chain: FWEASSRGGGAFSGGEDASEGGAEEGAGGAGGSAGAGEGPVITALTPMTIPDVFPHLPLIAITRNPVFPRFIKIIEVKNKKLVELLRRKVRLAQPYVGVFLKRDDSNESDVVESLDEIYHTGTFAQIHEMQDLGDKLRMIVMGHRRVHISRQLEVEPEEPEAENKHKPRRKSKRGKKEAEDELSARHPAELAMEPTPELPAEVLMVEVENVVHEDFQVTEEVKALTAEIVKTIRDIIALNPLYRESVLQMMQAGQRVVDNPIYLSDMGAALTGAESHELQDVLEETNIPKRLYKALSLLKKEFELSKLQQRLGREVEEKIKQTHRKYLAQEQLKIIKKELGLEKDDKDAIEEKFRERLKELVVPKHVMDVVDEELSKLGLLDNHSSEFNVTRNYLDWLTSIPWGKYSNENLDLARAQAVLEEDHYGMEDVKKRILEFIAVSQLRGSTQGKILCFYGPPGVGKTSIARSIARALNREYFRFSVGGMTDVAEIKGHRRTYVGAMPGKIIQCLKKTKTENPLILIDEVDKIGRGYQGDPSSALLELLDPEQNANFLDHYLDVPVDLSKVLFICTANVTDTIPEPLRDRMEMINVSGYVAQEKLAIAERYLVPQARALCGLDESKAKLSSDVLTLLIKQYCRESGVRNLQKQVEKVLRKSAYKIVSGEAESVEVTPENLQDFVGKPVFTVERMYDVTPPGVVMGLAWTAMGGSTLFVETSLRRPQDKDAKGDKDGSLEVTGQLGEVMKESARIAYTFARAFLMQHAPANDYLVTSHIHLHVPEGATPKDGPSAGCTIVTALLSLAMGRPVRQNLAMTGEVSLTGKILPVGGIKEKTIAAKRAGVTCIVLPAENKKDFYDLAAFITEGLEVHFVEHYREIFDIAFPDEQAEALAVER
notes: human mitochondrial LonP1, mature protein, residues 68-959 of UniProt P36776, with L396A; also called L396A Lon mutant; Lon L396A; not shown: His6, N-terminal, cleaved
As to B2, the binding result in data set [2] was “binds”.
For the molecule B3, in data set [1], the “stoichiometry N” value was found to be 6.

B4: mitochondrial transcription factor A, mature (amino acids 43-246) (natural protein, UniProt Q00059 43-246, looked up)
chain: SSVLASCPKKPVSSYLRFSKEQLPIFKAQNPDAKTTELIRRIAQRWRELPDSKKKIYQDAYRAEWQVYKEEISRFKEQLTPSQIMSLEKEIMDKHLKRKAMTKKKELTLLGKPKRPRSAYNVYVAERFQEAKGDSPQEKLKTVKENWKNLSDSEKELYIQHAKEDETRYHNEMKSWEEQMIEVGRKDLLRRTIKKQRKYGAEEC
notes: mitochondrial transcription factor A (TFAM), mature, amino acids 43-246; also called TFAM; substrate; not shown: His6, N-terminal, cleaved
For B4, the binding result in data set [3] and in data set [4] was “binds” each time.

The term stoichiometry N denotes the number of molecules, sites or subunits per partner or assembly.
